In the supplement of paper PMC7877785:
± gives the uncertainty stated by the source.

Assay: self-splicing fitness, log relative to wild type (ln ratio); higher = more splicing; Tetrahymena group I intron in knt gene, E. coli kanamycin selection, DiMSum; sequences stand for … in CUCUCU…GGAGGGAAAAGUUAUCAGGCAUGCACCUGGUAGCUAGUCUUUAAACCAAUAGAUUGCAUCGGUUUAAAAGGCAAGACCGUCAAAUUGCGGGAAAGGGGUCAACAGCCGUUCAGUACCAAGUCUCAGGGGAAACUUUGAGAUGGCCUUGCAAAGGGUAUGGUAAUAAGCUGACGGACAUGGUCCUAACCACGCAGCCAAGUCCUAAGUCAACAGAUCUUCUGUUGAUAUGGAUGCAGUUCACAGACUAAAUGUCGGUCGGGGAAGAUGUAUUCUUCUCAUAAGAUAUAGUCGGACCUCUCCUUAAUGGGAGCUAGCGGAUGAAGUGAUGCAACACUGGAGCCGCUGGGAACUAAUUUGUAUGCGAAAGUAUAUUGAUUAGUUUUGGAGUACUCGUGGUCG
Method in brief: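 DiMSum derived fitness as the error-weighted combination of fold changes across replicates, kanamycin versus no kanamycin, normalised to wild type. E. coli BL21(DE3) held the library, which randomised all eight P1ex-region intron nucleotides within the knt kanamycin-resistance gene on pET-22b(+). Six replicate transformations grew overnight at 37°C or 30°C on LB agar with or without 25 μg/mL kanamycin, also containing 100 μg/mL carbenicillin, 50 μM IPTG and 0.2% rhamnose, and pooled colonies were amplicon-sequenced on an Illumina HiSeq 2500.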

| Sequence | self-splicing fitness (ln) (30 °C) | self-splicing fitness (ln) (37 °C) |
| --- | --- | --- |
| UGUCAGCAAUAUUACGAUCU | -0.397 ± 0.091 | 0.0205 ± 0.1 |
| UACUAGCAAUAUUACGGGUA | -2.08 ± 0.14 | -1.84 ± 0.13 |
| UGCAAGCAAUAUUACGUUUU | -4.29 ± 0.16 | -3.33 ± 0.15 |
| GCGCAGCAAUAUUACGGAUU | -0.79 ± 0.039 | -0.328 ± 0.056 |
| CACGAGCAAUAUUACGGGUU | -3.2 ± 0.16 | -2.81 ± 0.22 |
| UGCCAGCAAUAUUACGAGUA | -1.49 ± 0.1 | 0.112 ± 0.11 |
| GAGUAGCAAUAUUACGUUCC | -1.88 ± 0.46 | – |
| GACGAGCAAUAUUACGGGCA | -1.58 ± 0.18 | -2.56 ± 0.29 |
| GCACAGCAAUAUUACGCCCU | -0.527 ± 0.094 | 0.00502 ± 0.11 |
| CUCUAGCAAUAUUACGCAGG | -3.35 ± 0.26 | -3.04 ± 0.47 |
| CUCUAGCAAUAUUACGCAUC | – | -2.64 ± 0.36 |
| AUCCAGCAAUAUUACGCGGC | -2.86 ± 0.18 | -4.06 ± 0.24 |
| CGAUAGCAAUAUUACGGACC | -1.78 ± 0.36 | -1.7 ± 0.29 |
| GUUCAGCAAUAUUACGACGC | 0.0985 ± 0.12 | 0.651 ± 0.23 |
| CUAGAGCAAUAUUACGCUGU | -3.92 ± 0.37 | -2.69 ± 0.36 |
| CGCAAGCAAUAUUACGCGAC | -3.77 ± 0.39 | -1.68 ± 0.18 |
| GACUAGCAAUAUUACGCAUU | -2.42 ± 0.14 | -1.63 ± 0.13 |
| ACAUAGCAAUAUUACGUCCG | -1.62 ± 0.11 | -1.2 ± 0.14 |
| UUUAAGCAAUAUUACGGAUA | -1.12 ± 0.18 | -1.13 ± 0.18 |
| GUGCAGCAAUAUUACGGAAA | – | -1.63 ± 0.34 |
| UCCCAGCAAUAUUACGACAU | -3.293 ± 0.018 | -2.13 ± 0.035 |
| GUCGAGCAAUAUUACGCCGU | -1.32 ± 0.3 | -0.299 ± 0.38 |
| AUCCAGCAAUAUUACGUCAU | -0.725 ± 0.041 | -0.313 ± 0.057 |
| GUACAGCAAUAUUACGCUUC | -2.54 ± 0.19 | -2.69 ± 0.26 |
| CUUAAGCAAUAUUACGCGAG | -4.13 ± 0.34 | -3.57 ± 0.33 |
| GAGCAGCAAUAUUACGCGAU | -4.28 ± 0.33 | -0.0586 ± 0.21 |

| Sequence | self-splicing fitness (ln) (30 °C) | self-splicing fitness (ln) (37 °C) |
| --- | --- | --- |
| UACCAGCAAUAUUACGUCGU | -2.09 ± 0.09 | -2.14 ± 0.12 |
| GUAAAGCAAUAUUACGGGCU | -1.69 ± 0.069 | -1.24 ± 0.11 |
| GGCAAGCAAUAUUACGUUUU | -0.0842 ± 0.054 | 0.186 ± 0.082 |
| CACUAGCAAUAUUACGGGCG | -0.464 ± 0.087 | -0.0972 ± 0.084 |
| UGUAAGCAAUAUUACGUUGU | -3.79 ± 0.21 | -2.98 ± 0.29 |
| AAGAAGCAAUAUUACGGAAG | -2.77 ± 0.094 | -1.68 ± 0.11 |
| UUUAAGCAAUAUUACGCAGG | -0.857 ± 0.14 | -0.494 ± 0.2 |
| AUUGAGCAAUAUUACGCGUG | -2.28 ± 0.16 | -2.32 ± 0.23 |
| ACCGAGCAAUAUUACGUCCA | – | -0.553 ± 0.21 |
| AUCCAGCAAUAUUACGGGGA | -1.4 ± 0.11 | -1.71 ± 0.14 |
| GUCUAGCAAUAUUACGUCGU | -0.819 ± 0.096 | 0.377 ± 0.092 |
| CAUUAGCAAUAUUACGCCGU | -2.04 ± 0.15 | -1.84 ± 0.21 |
| CAACAGCAAUAUUACGCAAU | -2.87 ± 0.16 | -1.87 ± 0.15 |
| CGACAGCAAUAUUACGUUAU | -3.7 ± 0.13 | -2.23 ± 0.12 |
| GAGGAGCAAUAUUACGCCUC | – | -2.29 ± 0.42 |
| AAGUAGCAAUAUUACGCCGC | -3.12 ± 0.38 | – |
| AUGAAGCAAUAUUACGACGG | -0.0267 ± 0.085 | 0.216 ± 0.14 |
| CUGCAGCAAUAUUACGCUGG | -3.66 ± 0.23 | -2.64 ± 0.25 |
| UGCAAGCAAUAUUACGUGCC | -0.791 ± 0.092 | -1.12 ± 0.12 |
| AUCUAGCAAUAUUACGACCA | -0.438 ± 0.12 | -0.302 ± 0.14 |
| UUUAAGCAAUAUUACGUAUA | -1.95 ± 0.12 | -1.54 ± 0.14 |
| UCUGAGCAAUAUUACGGCUC | -2.63 ± 0.22 | -2.14 ± 0.24 |
| CAGCAGCAAUAUUACGGCAU | -0.874 ± 0.074 | -0.81 ± 0.096 |
| AACUAGCAAUAUUACGCCUG | -1.08 ± 0.12 | -1.43 ± 0.13 |
| CGCCAGCAAUAUUACGGUUU | -0.936 ± 0.056 | -0.589 ± 0.059 |
| AUCGAGCAAUAUUACGCUGG | -2.78 ± 0.21 | -2.96 ± 0.2 |

| Sequence | self-splicing fitness (ln) (30 °C) | self-splicing fitness (ln) (37 °C) |
| --- | --- | --- |
| GGCAAGCAAUAUUACGUGUU | -1.96 ± 0.059 | -1.83 ± 0.076 |
| UCCGAGCAAUAUUACGAUCC | – | -0.617 ± 0.39 |
| CACAAGCAAUAUUACGUUCG | -0.461 ± 0.048 | 0.012 ± 0.06 |
| AGUGAGCAAUAUUACGUCGG | -3.07 ± 0.31 | -1.97 ± 0.36 |
| AAGAAGCAAUAUUACGUCUG | -0.345 ± 0.054 | 0.0995 ± 0.071 |
| UAACAGCAAUAUUACGUACU | -1.07 ± 0.063 | -0.454 ± 0.068 |
| UGUCAGCAAUAUUACGUGUU | -3.51 ± 0.15 | -1.23 ± 0.11 |
| UGCGAGCAAUAUUACGGUGG | -3.04 ± 0.23 | -3.1 ± 0.33 |
| AUGAAGCAAUAUUACGGCUG | 0.352 ± 0.066 | 0.0954 ± 0.087 |
| GCAUAGCAAUAUUACGGUGC | -3.71 ± 0.46 | – |
| UCUUAGCAAUAUUACGGUUG | -3.34 ± 0.32 | -2.18 ± 0.43 |
| CUUGAGCAAUAUUACGGGAG | -3.95 ± 0.22 | -3.25 ± 0.26 |
| CGACAGCAAUAUUACGUCAG | -2.38 ± 0.094 | -1.94 ± 0.12 |
| UUCAAGCAAUAUUACGCAGG | -2.71 ± 0.14 | -1.78 ± 0.13 |
| GGAAAGCAAUAUUACGCGAU | -2.98 ± 0.18 | -1.02 ± 0.17 |
| UAUUAGCAAUAUUACGUUCU | -2.64 ± 0.24 | -1.19 ± 0.17 |
| GGUCAGCAAUAUUACGACUU | -0.64 ± 0.081 | -1.09 ± 0.087 |
| GGGCAGCAAUAUUACGGUCA | 0.308 ± 0.069 | 0.187 ± 0.083 |
| CUGGAGCAAUAUUACGGGGU | -3.12 ± 0.31 | -1.53 ± 0.27 |
| CCGCAGCAAUAUUACGGGAA | -4.03 ± 0.28 | -2.71 ± 0.23 |
| CUAGAGCAAUAUUACGUAUU | -3.42 ± 0.17 | -3.03 ± 0.26 |
| CGCCAGCAAUAUUACGCGCU | -3.54 ± 0.15 | -2.52 ± 0.15 |
| AAAUAGCAAUAUUACGCCGA | -2.41 ± 0.19 | -0.837 ± 0.17 |
| GUAAAGCAAUAUUACGCGAU | -3.23 ± 0.21 | -1.42 ± 0.19 |
| CGUUAGCAAUAUUACGUACG | -2.89 ± 0.36 | -2.09 ± 0.5 |
